Data on 1 substance can be found in paper PMC4600444.

The experiment concerns the target Xis2d protein of CTnDOT (Bacteroides spp. (conjugative transposon CTnDOT)). Nature of the experiment: SEC.

“Xis2d protein of CTnDOT (natural protein)”: the stoichiometry N (usually the number of molecules, sites or subunits per partner or assembly) worked out at 2.
